± gives the uncertainty stated by the source.

Drawing on the supplement of paper PMC12042874, this text covers amyloid nucleation score for 57 substances.

This data set in a line: amyloid nucleation score (Sup35N fusion, yeast selection) (log enrichment); library NNK1; higher = more nucleation; inactive = no reads after selection. In outline: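 In psi-negative yeast, Sup35N fusions carrying peptides of 20 random codons were induced with 100 μM copper sulfate for 24 hours. The cells then grew 7 days at 30°C on medium lacking adenine and uracil, and plasmid inserts from input and output were Illumina-sequenced, excluding sequences with under 100 input reads. Nucleation score is the DiMSum log enrichment of output over input reads, centred on the mode score of non-aggregating sequences.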

Turning to FLYWSHSYFLITWFRCVLEI, the amyloid nucleation score result is “inactive”.
As for FPSARYNNLT, the figure is 0.655 ± 0.57; as for MQWWVGYAIITEN, -0.119 ± 0.56.
Next, RNLYQFM: 0.203 ± 0.27.
Next, NIHSEAPISPSMPGLREVTA: 0.219 ± 0.32.
DRVSCNEEFQRKCIFTVIRR gave an amyloid nucleation score of 1.19 ± 0.63.
The substance VEYSVTCFLNYY had an amyloid nucleation score of 5.71 ± 0.059.
Next, VLSPFTVKIDIKSKISVLGP: 4.11 ± 0.15; LVLSWSWICFL: 7.39 ± 0.059; MLVYYNDKSVFHRFVLLRN: 0.644 ± 0.85.
As for GRRLIKSTQCGVNKVDSAIW, the figure is -0.184 ± 0.27.
STKSTQDSSSDFIAVCGKRE displayed an amyloid nucleation score of 0.925 ± 1.1.
As to YFIDLISWL, the amyloid nucleation score stood at 0.198 ± 0.56.
Take GKNDLSMNIGELWASGRGVV: the amyloid nucleation score amounted to 2.18 ± 0.24.
For the substance SCDVTILGYLAMMKLDVMWV, the amyloid nucleation score was -0.074 ± 0.34.
As for DQVISNCRLNMGV, the figure is -0.369 ± 0.56; as for KASGIMLSSGVLEILVWVQW, 0.01 ± 0.84.
Substance VPRYGTLEGANESDLFGW came in with an amyloid nucleation score of 0.282 ± 0.78.
For IRLNSFTIESKRMYGRDSDV, the amyloid nucleation score amounted to 3.38 ± 0.12.
Substance RYLVALFSMYKWYGVEKDWK yielded an amyloid nucleation score of 0.954 ± 0.54.
Substance RGSVIWRRRWTTESWSSYFG yielded an amyloid nucleation score of 1.25 ± 0.72.
As for GSSAFRINLFFLSIVGYRRS, the figure is 5.61 ± 0.062.
As for DTVSMLHQLVCW, the figure is 7.245 ± 0.053; as for RPGVNLWVLFVTMQTPEIRL, 3.01 ± 0.11.
SRTVVTYHQLTWHGVGYMV had an amyloid nucleation score of 0.571 ± 1.2.
As for CGYSKVPMPCALAECGGRPR, the figure is 0.054 ± 0.45.
As to MDLAYMFKLCIGVESM, the amyloid nucleation score entry was “inactive”.
FIELMRGDDLMHRGTLYVLR: the amyloid nucleation score result was “inactive”.
The substance ENDVSQPVRLTVVTRWSWYT had an amyloid nucleation score of 0.229 ± 0.53.
In the case of FSRPWWRSWHSFFSHDEKTI, the amyloid nucleation score was determined as 0.282 ± 0.69.
Next, GFFHGHIGLQHMCELQCCSG: “inactive”; DINNCSSEGRTYPFVIELPP: 1.03 ± 0.76.
With RRVTCGLQGVLRENR, the amyloid nucleation score was 0.4 ± 0.46.
Next, TVTYRLYVPATVCFKILFRR: -0.625 ± 0.33; MPRLTDRDKLCDFVNLQFIF: 6.7 ± 0.073; WCSDKSVGRAKDDDSGTRRC: -0.018 ± 0.46.
As for TYRKYLRVRTLDERHGSVYE, the figure is 0.147 ± 0.35.
Substance VVIESYC yielded an amyloid nucleation score of 0.593 ± 0.36.
Consider KPLILVQNTKLPSRFCYPLT, for which the amyloid nucleation score was -0.488 ± 0.74.
Take SRYQEYRFQMCMMECMRRLA: the amyloid nucleation score is 0.115 ± 1.
Consider AYFYNEKNCYSHGKYVPYSF, for which the amyloid nucleation score is -0.797 ± 1.7.
As for KSSNLVYVHTAHQRGYYCNQ, the figure is 0.3 ± 0.41.
As for GHVWEQGRQLGSAPKDR, the figure is 0.1 ± 0.71; as for LLLYSGEFNS, -0.433 ± 0.39; as for VDLSLLIMVFQFGGVGERLR, 2.15 ± 0.17.
Next, MSLDAFV: “inactive”; RFILPVVGSSHLINSLADSL: -0.8 ± 1.4.
The substance SFVCCFRLPWMGGTKNPMHV yielded an amyloid nucleation score of 3.55 ± 0.19.
Substance FELLMDIDC gave an amyloid nucleation score of 0.139 ± 0.83.
In the case of ASVVSCQQSYLRWQEIL, the amyloid nucleation score is -0.316 ± 0.74.
As for VAQLRIKVCKDPGTWLQVHH, the figure is 1.48 ± 0.74; as for FRIAGSKRCFCID, 0.463 ± 0.31; as for WYRVCV, -0.603 ± 0.65.
As for GMALKLFCALT, the figure is 0.078 ± 0.89; as for VLTLSTKLCLHRGGWTTKPT, 4.2 ± 0.068.
With TFLYKKLTFEVVWGCLIASE, the amyloid nucleation score was -0.041 ± 0.84.
Next, HTEEGKSWFMRGSSVWFRVG: 0.341 ± 0.18.
